Consider 21 sequences from a protein production outcome set (Wang et al. 2014).

This series in a line: label from the status in PepcDB records.
In the case of “MVTVMRTLMPKIGRIAAKMTLCALCVAPMFSVQATELNWPEQPFRYYADNDSLKDLLNNFGANYRVSVSVSDKVNDRVSGRFTPEDPAEFLDYLAQVYNLMWYFDGAVLHVYKATETRSRLLQLELLTARELRSTLISTGVWDARYGWRAAENKGLVYLAGPPRYVELVVQTAEALESRLLQKSNSTDELFVELIPLKYASATDRSISYRDQSITVPGIASVLSRVVGGVQTQITDSASVQTSSVNGLPAEAAKPRGKTASVHGGATVEAEPGLNAIIVRDTQARLPLYRKLVAQLDQPQSRIEVALSIVDISANDLRQLGVDWRAGVSVGNNRIVDIKTTGDVDNGDVTLGSGQSFKSLLDSTNLNYLLAQIRLLESKGSAQVVSRPTLLTQENVEAVLNNSSTFYVKLVGKETAALEEVTYGTLLRIVPRIVGDRFATRPEINLSLHLEDGAKIPDGGVDDLPSVRKTEISTLATVKQGQSLLIGGVYRDEVSHQLRKVPLLGDIPYLGALFRSNTNTTRRTVRMFIIEPRIVVDGIGDSVLIGNEHDLRPSIGQLNNISNNSAEFKSVVEVFSCTSKTQAERYQQDLLSQQKSSLLTQCQLPSGQVGWRVKVAECDLSQAECVRPSEEP”, the protein production result was “failed”.

For the sequence “MVVLMLCAALLVIVGCPETALGKGLRRWLVDWPAKVLAGLTPARLVLLLALLAVSTLVVVLFEVEGAILLGMALPEVAVWFMAFDVAVFIDLFAAIALAANGARLKGLGDRIKALPRRFGRGLVARVRRSGQGRQGGRRFRRPGSGATKSEDGDAGWSGAAQPGALAWA”, the protein production entry is “failed”.

With “MVVNKRLILILLFILNTAKSDELSWKGNDFTLYARQMPLAEVLHLLSENYDTAITISPLITATFSGKIPPGPPVDILNNLAAQYDLLTWFDGSMLYVYPASLLKHQVITFNILSTGRFIHYLRSQNILSSPGCEVKEITGTKAVEVSGVPSCLTRISQLASVLDNALIKRKDSAVSVSIYTLKYATAMDTQYQYRDQSVVVPGVVSVLREMSKTSVPASSTTNGSPATQALPMFAADPRQNAVIVRDYAANMAGYRKLITELDQRQQMIEISVKIIDVNAGDINQLGIDWGTAVSLGGKKIAFNTGLNDGGASGFSTVISDTSNFMVRLNALEKSSQAYVLSQPSVVTLNNIQAVLDKNITFYTKLQGEKVAKLESITTGSLLRVTPRLLNDNGTQKIMLNLNIQDGQQSDTQSETDPLPEVQNSEIASQATLLAGQSLLLGGFKQGKQIHSQNKIPLLGDIPVVGHLFRNDTTQVHSVIRLFLIKASVVNNGISHG”, the protein production result is “failed”.

“MVYFYPINDSRWYTFIHLFLYCKALKLLVVPNSKGVSPIFNQITIHNQHTENWLIIGLFCGAFVTGADAFIISALLPAIATSLHVPTNTAAYGVTVYALCYAIGAPLFGPLGDRFNKRFLLIRGCGIFLLGTLLCGLANSLLTFYLYRAIAGIGAALFVPNIWAFIGTYFNGQRLNQVMGIVMSALSLSIATGVPLGALLAQLSSWHMAFWGSAMLTLIALSILTIAIPSLPSQNAQPDGYFTSFKTLVHTPHAIAALLITLTWMTGFYGVYTFLGVFATATFHFNTMQTGLIFITYGSANFVASFFAGKLISLLGKKQSVTINGLVSATLVLSLGIWGQHLAVLLIILVVLALSQGWGVTALTATIVNIVPSNRSTIMSFNSAFLYYGLTLGSAAGGLLLTKIGFYAVTIAAATALLVAVLIANALSHYSD”: the protein production result is listed as “failed”.

On to “MVYVDPDRFDELVAEALDGIPEEFARAMRNVAVFVEDEPDDPELLGLYVGIPLTERTTAYGGVLPDRIIIYRNTICALCETESEVIDEVRKTVVHEIAHHFGIDDERLHELGY”, for which the protein production result is recorded as “not failed”.

With “MWAFLVEQPNLPYTIAFACVLVLGVFEALALLIGLSMMSALDQWVPADVEYDADIGGSGLTGIAGWLCLNRLPLLIWFVLALTSFAIAGYLVNYISLMVSATLLPQLFTLPIAVVGSALSCRYLGRMLADLLPKNESTAISLDDLSGYVGTITLGCAIKGMPSEAVVRDKHQQKHYVLVEPETSGIEFASGTQVVLLKREGRVWSATRFDN”, the protein production entry is listed as “failed”.

Regarding “MWAGMYPSQPDQVKSKPTYILNYFINPMTGSDILGLLMVYVYVAVLLLVSERFLGDRPNLSRKFVHIMVGNILFILPLFESRLVITFLAAAPFILITFLLSPYSPLRVKHRASSYGHGLGLVYYSISWTILAYLFFEAPWITGIGIAAMSYGDGFASLTGERFGRTTFSVLGDKKSLEGSLGMFIILLVMLPVVLTYYSQGFTPYLILGVALVSTVLEALTPRGLDNLTACFGAVAAYILLGGMGI”, the protein production entry is “failed”.

“MWIFFRFISGIYLKNFFIIFFSLLGFYCGIDLLLNFKDLPKAANLDLLYVMFLSFSAVPYVLPISLIFALVVSLISMIRANEFVSLYALGLSRNYVILFPFLWALFFCCIYIGLNFTSFAYANDYKRNILKNGTIMNQSGEVFLKFNNNFVYISKINNGQNSAQNIKIFNINDLNLSSFVSAKNAYFEGESWILRDGNITLLPKNYELANDGLKIQDFSELKSLEGFKPKIIEGVASNSDYSISDALESFELFKAQNVNTDALKINLYKFVFTPFFAPFLMLIMYYFFPVIARFFNLAIVTFMAFVVTLMIWGVLFLLTRLSENSVIASEIGIVVPIIILGCLSAYMYYKHR”: the protein production result is reported as “failed”.

In the case of “MWKCHRYMMSSHLHRQLDLINMEIKTIASGSKGNAYVISSGRSQLLIECGVNFDKIRKALNFDLSAVEACLISHEHGDHVAGVKKMLRTSSIKIYASEGTLSALNVPDSRQFILKEKDAQNIGEWIILPFQTEHDAKEPLGFMIQRHNERLLFITDSYFVRYKFKNINYLMIECNYSADILEENVINKVIHQVQKKRVLQSHFSLENVKEFLNANDLSQLREIHLLHISERNGDPERFKKEIQAMTGVPVYV”, the protein production result was “failed”.

On to “MWKPLLIAVGLLSLVCGAIGVVLPVIPTTPFLLLSAFCFTRSSERLHNYLVSHRIFGEYISNYYNHAMTPQHKFRTLLTLWCGIILSCFLIGATIPWIILPLIATGVSIHIIRLKPRPEATPTASSPEADSGSEPHFADDHKA”, for which the protein production result was “failed”.

As to “MWLLCDCLLCFPLSPEEFLTEILDLLELVFVILVVCEWKPKRFAGEFRLLMEQRVQLRVGTMETISNEGDVDREQVLETFGIENETGKETNGSRSFDVGYSSGDTLETLPKASKVDISPADVLKTLFFILVWYTFSTFLTLYNKTLLGDDLGKFPAPLLMNTIHFSIQAVLSKMITWYWSGRFQPDVTISWRDYFVRVVPTALGTAMDINLSNESLVFISVTFATMVSYFIYYVQICSPNISSSVCFCLQSPSLKLFGIISVISAGVLLTVAKETEFEFWGFVFVMLAAVMSGLKNPFIFMSCVAPVMAIATGLLSLLLDPWSEFRDNKYFDSGAHFARTCFLMLFGGALAFCMVLTEYVLVSVTSAVTVTIAGVVKEAVTIVVAVFYFHDEFTWLKGVGLMIIMVGVSLFNWYKYDKLQKGHKTEEEKQLQAPSQTGKYVILDEMDDQENSP”, the protein production entry is “failed”.

With “MWLRSYRITFSCLTRLKTYRSSWKKLYSTSQTVDSKEVKTFQALAHSWWDEQGKFAPLHSMNDLRVPFIRDNLLKTSTNHDPGKPLSGMKILDVGCGGGLLTEPLGRLGASVVGIDPVAENIKIAQHHKSFDPVLDKRIQYRVCSLEETLNENAECFDAVVASEVVEHVNNLEMFIQCCYQVLKPGGSLFITTVNKTQLSYVLGIVFSEQIAGIVPKGTHTWEKFVSPEKLESILEPNGLSVETVAGMVYNPFSGYWHWTENTSLNYAAHAVRARAQEHLEPAESA”, the protein production result is reported as “failed”.

For “MWNGREYMSEPASPEKKVIIIAGPNGAGKTTFAEEFLPQEAQCLTFINADLIAAGLAPFEPEQAAFRAGRLMLEEIYNHAQRGQNFAFETTLSGRSYARLIPTWQAQSYIVKLFFLQLLSPELAIARVAQRVRAGGHHVPEAIIRRRFAAGLHNLETLYKLIVDEWVCYDNSGNEPVLINKGGKLLEHHHHHH”, the protein production result is recorded as “not failed”.

Regarding “MWPNGSSLGPCFRPTNITLEERRLIASPWFAASFCVVGLASNLLALSVLAGARQGGSHTRSSFLTFLCGLVLTDFLGLLVTGTIVVSQHAALFEWHAVDPGCRLCRFMGVVMIFFGLSPLLLGAAMASERYLGITRPFSRPAVASQRRAWATVGLVWAAALALGLLPLLGVGRYTVQYPGSWCFLTLGAESGDVAFGLLFSMLGGLSVGLSFLLNTVSVATLCHVYHGQEAAQQRPRDSEVEMMAQLLGIMVVASVCWLPLLVFIAQTVLRNPPAMSPAGQLSRTTEKELLIYLRVATWNQILDPWVYILFRRAVLRRLQPRLSTRPRRVSLCGPAWSTVARSRLTATSASRVQAILVPQPPEQLGLQA”, the protein production entry is given as “failed”.

In the case of “MWQNFYLTTLKLSQYTQEEKPILPADNMDPRALASVHAWEHGDFMCKGYIQSRLSDPLYNVYSNVETSNELWDSLDKKYQTKDAGSQKYAAAKFLDYKMVDSRPMMVQVEELTCLFHDI”, the protein production entry is on record as “not failed”.

As for “MWQQHLAILPILVPLLAALLQLLPWGDRPQPKRRAIGLLSSILTLILTIALLVQVNQDQMIVYALGNWSAPFGIVLMVDKLSALMMLVTAILALPVLIYGCYAEDNLGSHFQALFQFQIMGIMGAFATGDIFNLFVFFEVLLISSYALLMHGGGKFRLRTTLHYVLLNLLGSALFLISVGTLYGVTGTLNMADLATQVQQLSGDQAALAKAGGMMLLIVFGIKAAILPLHFWLPQAYSTTTGVVAALFAIMTKVGVYAIVRVYTLIFGPEANELALIAHDWLWVMGLVTMLAGAIGIIGARDLRLLVAYLVVISIGTLIATYSLNGIATTGAMLFYLIHSTFITGALFLLADLIAFERGKTASRIVSGKKMANHSAYSVMFLIAAIAIIGLPPLSGFVGKLMIMESASPTGASFWLWGAMLGATLIMLISVTRAGSKMLWHTLSGKANEQSAPLGKRAAVVMLLSLSVVMTLFASPIRNYTDDVAEQLYDIDQYPSRVLTKGAE”, the protein production entry is on record as “failed”.

For “MWRDTMSAFLGELIGTALLIVLGGGVCAGVSLKKSFAKDSGWIVITMGWGLAVAVAAYAVGSISGAHLNPALTIGLAFKGAFPWSDVPGYIVAQMIGAIIGAVIVYLHYLPHWKETEDPGTKLGVFATGPAIPNTFANLLSEMIGTFVLVFGILAIGANKFADGLNPFIVGFLIVSIGLSLGGTTGYAINPARDLGPRIAHFFLPIAGKGGSNWKYAWIPVVGPILGGSLAGLFHQVVFEGKQNSALIYVIIATVIVLAISYMTSKKSGSNTNSRKVA”, the protein production entry is “failed”.

For the sequence “MWRRSLTESHSNELRLELTSRIVSAYLSRNVIAPSELPHLIQQTYGSLGKTSEPTKTPATVEEQRPAVPIKKSVTDDFIVCLEDGKSFKSLKRHLMAKYALTPEQYREKWKLPADYPMVAPNYARKRSELARATGLGKKSAANLSPSLQAVRSA”, the protein production entry was “not failed”.

On to “MWRSLLLPTCSHALIELHFFSHYCTIMMNQNTQPTNNLKDKKITYNFNKLQKRLRRNVGNAIANFNMIEAGDKVMVCLSGGKDSYTLLDILLNLKLSAPINFDIVAVNLDQKQPGFPEHILPEYLASIGVEYKIVQENTYGIVKEKIPEGKTTCSLCSRLRRGILYRTATELGATKIALGHHRDDMLETLFLNMFYNGKLKSMPPKLISDDAKHIVIRPLAYCKEKDIEKYAEAKQFPIIPCNLCGSQPNLQRQVVKEMLQNWDRQYPGRIETMFSALQNVTPSHLCDTQLFNFKAVKHGEMINGIEGDIAFDKMDIPMTLNIQEEDEKQAYTQNGTIQFKAV”, for which the protein production result is on record as “failed”.

Take “MWSIFRKEIAVFLNSLIAYLVILVFLTFIGVFMWVLPASSILDYGYAEMDTLFSYGPLAFLLLIPAITMRSFAEEKKDGTIELLLTKPLSDWQLLLGKYLSACTLVALALIPTVLYYISVYQLGKPVG”: the protein production entry was “failed”.

Consider “MWSILALGAVERCIHHIIDLDAITRIQTNQLQGKLLRVVTDSPQLSVDVFFDENRVRLEPTVTGQSQTPSIFEQRPFDPQYKMTDATATLHVKNIVELVKLLFNDPDQIGNIPVEGDYHLLQDIQKIMQQSEPDLAAHLSPWIGPALAHELGKIRLAPQQLKRSMQSHLFFVEDALKEDSGLFAPRWQMDDLQHATRQLNQELDRVEARLQQLNLQLQSDN”, for which the protein production result is “failed”.
